# Measurements: patent US12600782 (BIOTHEUS, dated 2026)
# Substitutions are numbered along the chain they refer to.
# T1: human PD-L2 protein (purchased from AcroBiosystems) (human, UniProt Q9BQ51 20-219, limits assumed, biotinylated in the blocking assays)
# T1 construct: Bought soluble protein; also called PD-L2 antigen; biotinylated human PD-L2 protein
# T1 sequence (looked up): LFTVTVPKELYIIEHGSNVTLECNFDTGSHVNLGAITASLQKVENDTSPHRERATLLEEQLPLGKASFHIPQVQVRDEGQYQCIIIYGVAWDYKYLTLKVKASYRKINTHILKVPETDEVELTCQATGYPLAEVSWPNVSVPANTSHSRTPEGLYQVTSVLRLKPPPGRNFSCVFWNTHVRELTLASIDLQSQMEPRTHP
# T2: human PD-L2 on CHO cells (CHO-hPD-L2 cells) (human, UniProt Q9BQ51 20-273)
# T2 construct: whole, on cells; also called CHO-K1-PD-L1/PD-L2
# T2 sequence (looked up): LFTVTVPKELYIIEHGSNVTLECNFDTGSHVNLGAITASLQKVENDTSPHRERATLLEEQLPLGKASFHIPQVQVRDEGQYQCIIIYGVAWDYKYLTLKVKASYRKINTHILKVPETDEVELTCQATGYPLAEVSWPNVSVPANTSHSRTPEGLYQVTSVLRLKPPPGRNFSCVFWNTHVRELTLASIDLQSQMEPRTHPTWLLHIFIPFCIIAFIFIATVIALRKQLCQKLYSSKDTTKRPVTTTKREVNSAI
# B1: D-Ye-29 (antibody, V domains shown)
# VH: QVQLQESGGGLVQPGGSLRLSCAASGSEFSFIPTGWYRQTPGKQRDLVAVFTSGGLTNYADSVKGRFTISRNNTKNIVYLQMNSLKPEDTAVYYCSGVPGPHYNGPTSGINYWGQGTQVTVSS
# notes: Anti-PD-L2 heavy chain antibody: VHH linked to human IgG1 (LALA) Fc; the junction is not described
# B2: HZ-D-Ye-29-3 (antibody, V domains shown)
# VH: B1 VH with Q1E, Q5L, T40A, D46E, N72D, T74S, I77T, K86R, P87A
# notes: Humanized anti-PD-L2 heavy chain antibody: VHH linked to human IgG1 (LALA) Fc; the junction is not described
# B3: HZ-D-Na-96-3 (antibody, V domains shown)
# VH: EVQLVESGGGLVQPGGSLRLSCAASGRTFSSMTIGWFRQAPGKEREFVSGIGWTSGLTVYADSVKGRFTISRDNAKNSMYLQMNSLKPEDTAVYYCAADSMNRGQFDYWGQGTLVTVSS
# notes: as for B2
# B4: HZ-D-Na-96-2 (antibody, V domains shown)
# VH: B3 VH with E44G, R45L, M79L
# notes: as for B2
# B5: K-Yr-13&14-09 (antibody, V domains shown)
# VH: QVQLVESGGGLVKAGDSLRLSCAASGRTFTIYAIGWFRQAPGKEREFVATINWSGSMTNYTDSVKGRFTISRDNAKNTVYLQMNSLKPDDTAIYYCAAYVGATISTAHSRYDYWGQGTLVTVSA
# notes: Anti-PD-L1 heavy chain antibody: VHH linked to human IgG1 (LALA) Fc; the junction is not described
# B6: K-Yr-13&14-16 (antibody, V domains shown)
# VH: EVQLVESGGGLVQAGGSLRLSCAASTRTFITYAMGWFRQAPGKEREFVASINWSGASTYYADSVKGRFTISRHNAKNTVYLQMNSLKPEDTAVYYCAAALSAVVVTQILDYDYWGQGTLVTVSS
# notes: as for B5
# B7: D-Ye-22 (antibody, V domains shown)
# VH: QVQLQESGGGLVQAGDSLRLSCIGSRRTFTMAWFRQAPGKEREFVAGIWGPADHTIYANSVKGRFACSRDDSTNTIFLQMNSLELEDTALYLCAAADSSGDDFEYWGQGTQVTVSS
# notes: as for B1
# B8: D-Na-89 (antibody, V domains shown)
# VH: QVQLVESGGGLVQAGGSLRLSCAASGLTFINYAMGWFRQAPGKEREFVAAISWAGGTTSYADSVKDRFSITRDSAKDTVYLQTNSLKPEDTAVYYCAANSRILSRTAKDYDYWGQGTEVTVSS
# notes: as for B1
# B9: D-Na-90 (antibody, V domains shown)
# VH: B8 VH with E118Q
# notes: as for B1
# B10: D-Na-80 (antibody, V domains shown)
# VH: EVQLVESGGGLVQAGGSLRLSCAVSGVSFINYAMGWFRQAPGKEREFVAAISRFGGTTSYADSVKDRFSITTDTKDTVYLQTNSLKPEDTAVYYCAANSRILSRTAKDYDYWGQGTQVTVSS
# notes: as for B1
# B11: D-Na-58 (antibody, V domains shown)
# VH: QVQLVESGGGLVQAGGSLTLSCTASGRTFSSYAMAWFRQAPGKERELLVTISRSGSTTYYLDSVKGRFTISRDNAKNTVYLQMNSLKPEDTAVYYCAAKRSLQDEVYYWGQGTQVTVSS
# notes: as for B1
# B12: D-Na-87 (antibody, V domains shown)
# VH: QVQLVESGGGLVQPGGSLRLSCAASGFAFDAYAMTWVRQAPGKGLEFLSRIYSHGSKIIYAGSVKGRFTIFRDNAKNTVYLQMNSLKPEDTAVYYCAAGPDNIPTTGEKYDFWGQGTQVTVSS
# notes: as for B1
# B13: D-Ye-31 (antibody, V domains shown)
# VH: QVQLQESGGGLVQAGGSLGLSCAASGRTFSSMTIGWFRQTPGKEREFVAGIGWSTSKTVYKDSVKGRFTISTDNAKKTVYLQMNNLKPEDTAVYYCAADSMNRGQFDYWGQGTQVTVSS
# notes: as for B1
# B14: D-Na-64 (antibody, V domains shown)
# VH: B13 VH with Q1E, Q5V, A14P, G19R
# notes: as for B1
# B15: D-Ye-10 (antibody, V domains shown)
# VH: B13 VH with G16A, G19R, A24S, A98E
# notes: as for B1
# B16: D-Na-67 (antibody, V domains shown)
# VH: QVQLVESGGGLVQAGGSLRLSCAASGGLTFINYAMGWFRQAPGKEREFVAAISRFGGTTSYADSVKDRFSITRDVAKDTVYLQTNSLKPEDTAVYYCAANSRILSRTAADYDYWGQGTQVTVSS
# notes: as for B1
# B17: D-Na-78 (antibody, V domains shown)
# VH: QVQLVESGGGLVQAGGSLRLSCEASGVISINYAMAWFRQAPGKEREFVAAISRFGVTTSYADSVKDRFSIGITRDNAKDTMYLQTKSLKPEDTAVYYCAANSRILSRTAKDYDYWGQGTQVTVSS
# notes: as for B1
# B18: D-Ye-32 (antibody, V domains shown)
# VH: QVQLQESGGGLVQAGGSLRLSCAASGSVGSINAMAWFRQAPGKQRDVVAHMPSGGSTHYADSVKGRFTVSRDNAKNTVYLQMNSLKAEDTAVYYCWAAGLGWGQGTQVTVSS
# notes: as for B1
# Target: T1, human PD-L2 protein (purchased from …)
# Assay: BLI (ForteBio), antibody on AHQ sensor, 100 nM PD-L2 antigen, 1:1 model
# Method: (§1) ForteBio affinity determination was carried out according to existing methods (Estep, P et al., High throughput solution-based measurement of antibody-antigen affinity and epitope binning. MAbs, 2013.5(2): p. 270-8). In short, the sensor was equilibrated for 30 min under the line of the analysis buffer, and then the baseline was established after online detection for 60 s. The purified antibody obtained as described above was loaded onto the AhQ sensor online. […] Kinetic analysis was performed using a 1:1 binding model.
# The experimental method was the same as that in Example 1.5.
Kd [nM],koff [s⁻¹],kon [M⁻¹ s⁻¹],Binder
1.93,0.000376,195000,B1
4.49,0.00173,386000,B2
1.99,0.00059,297000,B3
1.58,0.000512,323000,B4

# Target: T3, human PD-L1 protein (purchased from AcroBiosystems) (human, UniProt Q9NZQ7 19-238, biotinylated in the blocking assay)
# T3 construct: Bought soluble protein; also called PD-L1 antigen; biotinylated human PD-L1 protein
# T3 sequence (Q9NZQ7 19-238 limits assumed): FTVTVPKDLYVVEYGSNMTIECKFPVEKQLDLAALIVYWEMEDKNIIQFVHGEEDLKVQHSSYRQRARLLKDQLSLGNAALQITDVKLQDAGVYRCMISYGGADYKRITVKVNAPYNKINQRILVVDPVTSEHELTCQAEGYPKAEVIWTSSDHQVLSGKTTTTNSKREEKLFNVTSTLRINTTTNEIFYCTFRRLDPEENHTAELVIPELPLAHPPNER
# Assay: BLI (ForteBio), antibody on AHQ sensor, 100 nM PD-L1 antigen, 1:1 model
# Method: as §1
Kd [nM],koff [s⁻¹],kon [M⁻¹ s⁻¹],Binder
2.56,0.00137,535000,B5
11,0.00606,553000,B6

# Target: T1, human PD-L2 protein (purchased from …)
# Assay: BLI (ForteBio), antibody on AHQ sensor, 100 nM PD-L2 antigen, 1:1 model
# Remark: another data set of the same source
# Method: as §1
Kd [nM],koff [s⁻¹],kon [M⁻¹ s⁻¹],Binder
4.51,0.000825,183000,B7
3.31,0.00112,339000,B8
3.79,0.00176,463000,B9
3.4,0.000433,127000,B10
0.486,0.000325,668000,B11
1.93,0.000376,195000,B1
0.655,0.000288,440000,B12
5.04,0.000644,128000,B13
0.566,0.000369,652000,B14
5.22,0.00106,203000,B15
3.58,0.000334,93300,B16
5.95,0.000345,58100,B17
5.69,0.00146,256000,B18

# Target: T2, human PD-L2 on CHO cells (CHO-hPD-L2 …)
# Assay: flow cytometry on CHO-hPD-L2 cells, PE anti-human IgG-Fc, median fluorescence intensity (MFI)
# Method: (§2) The expanded CHO-hPD-L2 cells were adjusted to a cell density of 2×10⁶ cells/ml, and were added to 96-well flow plate at 100 μl/well, and centrifuged for later use. […] The diluted samples were added to the 96-well flow plate with cells at 100 μl/well, incubated at 4° C. for 30 min, and washed twice with PBS. Goat F(ab')2 anti-human IgG-Fc (PE) (purchased from Abcam) diluted 100 times with PBS was added at 100 μl/well, incubated at 4° C. for 30 min, and washed twice with PBS. PBS was added at 100 μl/well to resuspend cells, and detection was performed on a CytoFlex (Bechman) flow cytometer and the corresponding MFI was calculated.
row,EC50 (read off the curve) [nM],Binder
1,~20,B7
2,~50,B11
3,~60,B14
4,~50,B15
5,~70,B18

# Target: T2, human PD-L2 on CHO cells (CHO-hPD-L2 …)
# Assay: as above
# Remark: another data set of the same source
# Method: as §2
row,EC50 (read off the curve) [nM],Binder
1,~3,B3

# Target: T1, human PD-L2 protein (purchased from …)
# Assay: flow cytometry blocking assay: antibody pre-incubated with biotinylated human PD-L2 protein (1 ug/ml), binding of PD-L2 to CHO-hPD-1 cells read as MFI
# Method: (§3) CHO cells overexpressing human PD-1 (CHO-hPD-1 cells) were generated by transfection of the pCHO1.0 vector (purchased from Invitrogen™) cloning human PD-1 cDNA (purchased from Sino Biological). The expanded CHO-hPD-1 cells were adjusted to a cell density of 2×10⁶ cells/ml, and were added to 96-well flow plate at 100 μl/well, and centrifuged for later use. The purified mutant sample was diluted with PBS and diluted 3 times from […] for 12 points. […] The co-incubation sample was added to the above-mentioned 96-well flow plate with cells 100 μl/well, incubated at 4° C. for 30 min, and washed twice with PBS. APC goat anti-mouse IgG (minimum×reactive) antibody diluted 100 times with PBS (purchased from Biolegend®) was added at 100 μl/well, incubated at 4° C. for 30 min, and washed twice with PBS. PBS was added at 100 μl/well to resuspend cells, and detection was performed on a CytoFlex (Bechman) flow cytometer and the corresponding MFI was calculated.
row,IC50 (read off the curve) [nM],Binder
1,~2,B7
2,~30,B8
3,~9,B11
4,~30,B12
5,~10,B14
6,~4,B15

# Target: T1, human PD-L2 protein (purchased from …)
# Assay: flow cytometry blocking assay: antibody pre-incubated with biotinylated human PD-L2 protein (1 ug/ml), binding of PD-L2 to CHO-hPD-1 cells read as MFI (APC)
# Method: as §3
row,IC50 (read off the curve) [nM],Binder
1,~2,B3
2,~2,B4
